Measured values taken from US20200199250A1 (KYMAB, published 2020).

Target: human factor X (human, UniProt P00742 41-179; P00742 183-488)
Assay: cell-based or functional assay

human factor X, sequence (P00742 41-179, chain 1 of 2): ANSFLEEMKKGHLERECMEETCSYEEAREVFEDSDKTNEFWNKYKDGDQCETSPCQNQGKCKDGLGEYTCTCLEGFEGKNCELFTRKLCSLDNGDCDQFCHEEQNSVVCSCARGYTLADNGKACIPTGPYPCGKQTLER
human factor X, sequence (P00742 183-488, chain 2 of 2): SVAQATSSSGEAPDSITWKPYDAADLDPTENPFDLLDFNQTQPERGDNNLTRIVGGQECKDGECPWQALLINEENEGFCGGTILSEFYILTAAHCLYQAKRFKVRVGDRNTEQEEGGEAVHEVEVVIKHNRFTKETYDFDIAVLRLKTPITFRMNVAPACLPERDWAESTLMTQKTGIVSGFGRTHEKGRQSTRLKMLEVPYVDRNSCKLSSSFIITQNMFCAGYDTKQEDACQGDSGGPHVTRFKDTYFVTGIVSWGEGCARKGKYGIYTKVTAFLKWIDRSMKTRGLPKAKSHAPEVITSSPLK

- EC50, Hyphen chromogenic FVIII mimetic activity assay (FXa generation with added FX and FIXa in diluted FVIII deficient plasma; OD405): 5.92 nM
B1: IXAX-1280.0999.0325 (bispecific antibody, human IgG4 S228P, lambda)
heavy 1: EVQLVESGGGFVQPGGSLRLSCAVSGFRFNSYWMSWVRQAPGKGLEWVANINQDGSRKFYVASVKGRFTMSRDNAKKSVYVQMNSLRAEDTAVYYCAREGYSSIKYYGMDVWGQGTTVTVSSASTKGPSVFPLAPCSRSTSESTAALGCLVKDYFPEPVTVSWNSGALTSGVHTFPAVLQSSGLYSLSSVVTVPSSSLGTQTYTCNVDHKPSNTKVDKRVESKYGPPCPPCPAPEFLGGPSVFLFPPKPKDTLMISRTPEVTCVVVDVSQEDPEVQFNWYVDGVEVHNAKTKPREEQYNSTYRVVSVLTVLHQDWLNGKEYKCKVSNKGLPSSIEKTISKAKGQPREPQVYTLPPSQEEMTKNQVSLTCLVKGFYPSDIAVEWESNGQPENNYKTTPPVLDSDGSFFLYSKLTVDKSRWQEGNVFSCSVMHEALHNHYTQESLSLSP
heavy 2: QVQLIQSGAKVKKPGASVKVSCKASRYKFTSYYMHWVRQAPGQGLEWMGIINPKSGSTSYAQKFQGRVTMTRDTSTSTVYMELSSLRSEDTAVYYCARDGYGSFSRLIQLWGQGTLVTVSSASTKGPSVFPLAPCSRSTSESTAALGCLVKDYFPEPVTVSWNSGALTSGVHTFPAVLQSSGLYSLSSVVTVPSSSLGTQTYTCNVDHKPSNTKVDKRVESKYGPPCPPCPAPEFLGGPSVFLFPPKPKDTLMISRTPEVTCVVVDVSQEDPEVQFNWYVDGVEVHNAKTKPREEQYNSTYRVVSVLTVLHQDWLNGKEYKCKVSNKGLPSSIEKTISKAKGQPREPQVYTLPPSQKEMTKNQVSLTCLVKGFYPSDIAVEWESNGQPENNYKTTPPVLDSDGSFFLYSKLTVDKSRWQEGNVFSCSVMHEALHNHYTQKSLSLSP
light: YVLTQPPSVSVAPGETARITCGGDNIGRKSVYWYQQKSGQAPVLVIYYDSDRPSGIPERFSGSNSGNTATLTISRVEAGDEADYYCQVWDGSSDHWVFGGGTKLTVLGQPKAAPSVTLFPPSSEELQANKATLVCLISDFYPGAVTVAWKADSSPVKAGVETTTPSKQSNNKYAASSYLSLTPEQWKSHKSYSCQVTHEGSTVEKTVAPTECS
